# Entries after “also recorded” stand apart in the source; their conditions may differ. Starred links: 1 amine or outer side, 2 acyl side, 3 side chain; linkers in the order of their positions; H or OH if unused. Non-standard residues stand in square brackets, D forms with d. No end group written: not given here. DMB = N-(2,3-dimethoxybenzyl)glycine, COc1cccc(CN(CC(=O)[*:2])[*:1])c1OC; Gly(N(CH2)2(3-indolyl)) = O=C(O)CNCCc1c[nH]c2ccccc12; 1Nal = N[C@@H](Cc1cccc2ccccc12)C(=O)O; 2Nal = N[C@@H](Cc1ccc2ccccc2c1)C(=O)O; AMN = N-(methylnaphthalyl)glycine; Cha = N[C@@H](CC1CCCCC1)C(=O)O; Nme = COCCNCC(=O)O; βAla = NCCC(=O)O
# How the values were obtained:
# [1] = target: T1, neuramimidase-treated human suPAR (soluble recombinant uPAR) (Homo sapiens, UniProt Q03405); assay: Biacore Binding Assay (surface plasmon resonance), ligand binding to immobilised suPAR; details: for kdiss (dissociation rate constant, off-rate): Biacore, 5° C., immobilised suPAR; for Relative kdiss: relative to the Growth Factor Domain of uPA (GFD = 1.0); for dissociation constant compared with other peptides: peptomer analogues; for human uPAR binding after introduction of spacing residues: spacer between D-arginine and L-tyrosine
# T1 construct: A soluble recombinant variant of human uPAR (suPAR) was expressed in Chinese hamster ovary (dhfr) cells; made in house; host or cells: Chinese hamster ovary (dhfr) cells
# T1 sequence (Q03405 23-305 limits assumed): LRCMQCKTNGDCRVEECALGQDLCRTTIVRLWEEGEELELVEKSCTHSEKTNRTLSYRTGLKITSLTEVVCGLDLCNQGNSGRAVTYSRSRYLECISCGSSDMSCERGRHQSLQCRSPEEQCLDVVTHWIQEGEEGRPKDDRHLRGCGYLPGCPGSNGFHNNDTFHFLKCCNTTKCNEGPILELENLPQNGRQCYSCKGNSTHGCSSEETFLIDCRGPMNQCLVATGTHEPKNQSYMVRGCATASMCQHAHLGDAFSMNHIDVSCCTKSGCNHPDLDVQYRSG
# Description: Association rate constants (kass), dissociation rate constants (kdiss) and equilibrium binding constants (kd) for various synthetic peptides and receptor binding derivatives of human uPA were determined by surface plasmon resonance (R. Karlsson et al. (1991) J. Immunol. Meths. 145:229–240) using a BIAcore2000™ instrument (Pharmacia Biosensor, Uppsala, Sweden). Due to the low isoelectric point of uPAR (pI≈4.5) terminal sialic acid residues were removed from its N-linked carbohydrates to facilitate chemical immobilisation on the sensor chip. This was accomplished by incubating purified suPAR (1 mg/ml in 50 mM phosphate, 150 mM NaCl, pH 7.4) with 5 μg/ml neuramimidase for 4 hours at 37° C. […] Coupling of the neuramimidase-treated suPAR to a BIAcore sensor chip was achieved by injection of 20 μg/ml suPAR in 10 mM sodium acetate pH 5.0 for 6 minutes at a flow rate of […] per minute using a carboxymethylated dextran matrix (CM5 sensor chip) preactivated with N-hydroxysuccinimide/N-ethyl-N′-[3-([…])propyl]carbodiimide according to the manufacturer's recommendations. Approximately 1,500–2,000 resonance units (RU) were immobilised by this procedure (corresponding to 1–2 ng suPAR/mrn^2).
# Sensorgrams (RU versus time) were recorded (FIG. 2) at a flow rate of 10 μl per min at 5° C. using several different concentrations of the ligand (synthetic peptides, uPA, the amino-terminal fragment (ATF) of uPA, or the growth factor domain (GFD) of uPA) in the range of 10 to 1000 nM in running buffer (10 mM HEPES, 150 mM NaCl, 3 mM EDTA (pH 7.4) including 0.005% surfactant P-20). Stock solutions of peptides from combinatorial chemistry were made in DMSO (10 mg peptide/ml DMSO). The sensor chip was regenerated at the end of each run by injection of 0.1 M acetic acid, 0.5 M NaCl. Data obtained from parallel mock coupled flow cells (subjected to the coupling procedure in the presence of buffer only) served as blank sensorgrams for subtraction of changes in bulk refractive index. The sensorgrams obtained were analysed by non-linear least squares fitting using BIAevaluation 2.0 software (Pharmacia Biosensor, Uppsala, Sweden) assuming single-site association and dissociation models.
# Purified human suPAR (1 mg/ml in 50 mM phosphate, 150 mM NaCl, pH 7.4) was incubated with 5 μg/ml neuramimidase for 4 hours at 37° C.
# In order to couple the neuramimidase-treated suPAR to a BIAcore sensor chip, 20 μg/ml suPAR in 10 mM sodium acetate (pH 5.0) was injected for 6 minutes at a flow rate of 5 μl per minute using a carboxymethylated dextran matrix (CM5 sensor chip), thereby immobilising approximately 1,500–2,000 resonance units (RU), which correspond to 1–2 ng suPAR/mm^2. The CM5 sensor chip was preactivated with N-hydroxysuccinimide/N-ethyl-N′-[3-([…])propyl]carbodiimide in accordance with the manufacturer's recommendations.
# Surface plasmon resonance sensorgrams (RU versus time) were recorded at a flow rate of 10 μl per min at 5° C. using several different concentrations of the ligand (i.e. the relevant peptide or GFD) in the range from 10 to 1000 nM in running buffer (10 mM HEPES, 150 mM NaCl, 3 mM EDTA (pH 7.4) including 0.005% surfactant P-20).
# The sensor chip was regenerated at the end of each run by injection of 0.1 M acetic acid, 0.5 M NaCl.
# Data from parallel mock coupled flow cells (subjected to the coupling procedure in the presence of buffer only) served as blank sensorgrams for subtraction of changes in bulk refractive index.
# The obtained sensorgrams were analysed by non-linear least squares fitting using BIAevaluation 2.0 software (Pharmacia Biosensor, Uppsala, Sweden) assuming single-site ssociation and dissociation models.
# [2] = target: soluble recombinant variant of human uPAR (suPAR) (human) (UniProt Q03405); assay: SPR (Biacore), ligand over immobilised neuramimidase-treated human suPAR
# Sequence of soluble recombinant variant of human uPAR (suPAR) (human) (Q03405 23-299, change not shown): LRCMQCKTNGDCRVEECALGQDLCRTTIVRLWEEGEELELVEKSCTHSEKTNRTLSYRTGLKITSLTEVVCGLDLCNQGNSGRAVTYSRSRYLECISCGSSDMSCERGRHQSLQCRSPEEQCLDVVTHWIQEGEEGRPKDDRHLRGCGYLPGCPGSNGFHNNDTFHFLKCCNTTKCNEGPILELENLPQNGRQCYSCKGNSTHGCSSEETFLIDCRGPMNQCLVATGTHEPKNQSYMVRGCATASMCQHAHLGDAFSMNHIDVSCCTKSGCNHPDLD
"kdiss (dissociation rate constant, off-rate) [1]",Relative kdiss [1],human uPAR binding after introduction of spacing residues [1],Relative kdiss (relative to GFD) [2],koff [2] [s⁻¹],Molecule,dissociation constant compared with other peptides [1]
0.00181 s⁻¹,12.9,,,,DFFsrYLWS (DFF[dS][dR]YLWS) [AE112],
0.00037 s⁻¹,2.6,,,,"D-Cha-F-s-r-DMB-f-AMN-MEA (D[Cha]F[dS][dR][DMB][dF][AMN][Nme]) [AE126, peptide-peptoid hybrid (peptomer)]",same order of magnitude as the best of the peptides; also recorded: approximating those of AE105 and AE110
0.00205 s⁻¹,14.6,,,,dChaFsrYL^2nAS ([dD][Cha]F[dS][dR]YL[2Nal]S) [AE109],
no binding,>>100,abolished the binding,,,DChaFsrGYLWS (D[Cha]F[dS][dR]GYLWS) [AE116],
0.00561 s⁻¹,40.0,,,,"D-Cha-F-s-r-DMB-f-TRA-MEA (D[Cha]F[dS][dR][DMB][dF][Gly(N(CH2)2(3-indolyl))][Nme]) [AE124, peptide-peptoid hybrid (peptomer)]",same order of magnitude as the best of the peptides
0.00056 s⁻¹,4.0,,,,eChaFsyYLWS ([dE][Cha]F[dS][dY]YLWS) [AE100],
0.00056 s⁻¹,4.0,,,,D-Cha-F-s-r-Y-L-Nal-h (D[Cha]F[dS][dR]YLX[dH]; not fully specified (residue 8); printed as D-Cha-F-s-r-Y-L-Nal-h) [AE131],
0.00074 s⁻¹,5.3,,,,"D-Cha-F-s-r-DMLB-f-Bzl-MEA [AE125, peptide-peptoid hybrid (peptomer)]",same order of magnitude as the best of the peptides
0.00051 s⁻¹,3.6,,,,D-Cha-F-s-r-L-L-W-h (D[Cha]F[dS][dR]LLW[dH]) [AE130],
,,,4,0.00056,AE100 (peptide),
0.00349 s⁻¹,24.9,,,,SLChaFsQYLWS (SL[Cha]F[dS]QYLWS),
no binding,>>100,,,,"D-Cha-F-s-r-MEA-DMB-f-AMN (D[Cha]F[dS][dR][Nme][DMB][dF][AMN]) [AE128, peptide-peptoid hybrid (peptomer)]",same order of magnitude as the best of the peptides
0.00167 s⁻¹,11.9,,,,eChaFsYYLWS ([dE][Cha]F[dS]YYLWS) [AE115],
0.00263 s⁻¹,18.7,,,,DChaFSrYLWS (DXFSRYLWS; D-residues; non-natural residues; cyclised or stapled) [AE106],
no binding,>>100,,,,arFhhYLWS ([dA][dR]F[dH][dH]YLWS) [AE104],
0.00028 s⁻¹,2.0,,,,DChaFsRYLWS (DXFSRYLWS; D-residues; non-natural residues; cyclised or stapled) [AE110],
no binding,>>100,abolished the binding,,,DChaFsrβAYLWS (D[Cha]F[dS][dR][βAla]YLWS) [AE117],
0.00054 s⁻¹,3.9,,,,"D-Cha-F-s-r-DMB-f-DMB-l (D[Cha]F[dS][dR][DMB][dF][DMB][dL]) [AE129, peptide-peptoid hybrid (peptomer)]",

"kdiss (dissociation rate constant, off-rate) [1]",Relative kdiss [1],human uPAR binding after introduction of spacing residues [1],Relative kdiss (relative to GFD) [2],koff [2] [s⁻¹],Molecule,dissociation constant compared with other peptides [1]
0.00884 s⁻¹,63.1,,,,dChaFSrYLWS (DXFSRYLWS; D-residues; non-natural residues; cyclised or stapled) [AE107],
0.00105 s⁻¹,7.5,,,,LNFsQYLWS (LNF[dS]QYLWS) [AE111],
0.00048 s⁻¹,3.4,,,,tChaFsrYLWS ([dT][Cha]F[dS][dR]YLWS) [AE108],
no binding,>>100,,,,DNFsrYLWS (DNF[dS][dR]YLWS) [AE113],
0.00053 s⁻¹,3.8,,,,D-Cha-F-s-r-Cha-L-W-l (D[Cha]F[dS][dR][Cha]LW[dL]) [AE132],
0.00059 s⁻¹,4.2,,,,DchaFsrYL^1nAS [AE114],
0.0129 s⁻¹,92.1,,,,SLNFSQYLWS (AE68) [reference compound],
,,,0.86,0.00012,amino-terminal-fragment (ATF) of human uPA (from UniProt P00749 21-155) (ligand),
,,,11.9,0.00167,[dE][Cha]F[dS]YYLWS [AE115],
,,,24.9,0.00349,SL[Cha]F[dS]QYLWS [Lcha],
,,,7.5,0.00105,LNF[dS]QYLWS [AE111],
,,,2,0.00028,DXFSRYLWS (beta-cyclohexyl-L-alanine (Cha) at 2; D-Ser at 4) [AE110],
,,,> 100,,D[Cha]F[dS][dR][βAla]YLWS (not fully specified; printed as DChaFsrβAYLWS) [AE117],
,,,4.2,0.00059,D[Cha]F[dS][dR]YL[1Nal]S [AE114],
,,,> 100,,D[Cha]F[dS][dR]GYLWS (not fully specified) [AE116],
,,,63.1,0.00884,DXFSRYLWS (D-Asp at 1; beta-cyclohexyl-L-alanine (Cha) at 2; D-Arg at 5) [AE107],
,,,18.7,0.00263,DXFSRYLWS (beta-cyclohexyl-L-alanine (Cha) at 2; D-Arg at 5) [AE106],
,,,92.1,0.0129,SLNFSQYLWS [AE68],

Molecule,"kdiss (dissociation rate constant, off-rate) [1]",Relative kdiss [1],human uPAR binding after introduction of spacing residues [1],Relative kdiss (relative to GFD) [2],koff [2] [s⁻¹],dissociation constant compared with other peptides [1]
ATF: amino-terminal-fragment (ATF) of human uPA,0.00012 s⁻¹,0.86,,,,
dChaFsrYLWs (DXFSRYLWS; not fully specified; D-residues; non-natural residues; cyclised or stapled),0.00068 s⁻¹,4.9,,,,
